T1: Bovine ribonuclease B (ribonuclease B from bovine pancreas, Sigma-Aldrich), P61823
T1 chain: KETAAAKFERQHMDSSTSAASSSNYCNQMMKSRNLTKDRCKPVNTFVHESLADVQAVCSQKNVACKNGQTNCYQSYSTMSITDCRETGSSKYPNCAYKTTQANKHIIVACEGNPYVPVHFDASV

T2: bovine fetuin, P12763
T2 chain: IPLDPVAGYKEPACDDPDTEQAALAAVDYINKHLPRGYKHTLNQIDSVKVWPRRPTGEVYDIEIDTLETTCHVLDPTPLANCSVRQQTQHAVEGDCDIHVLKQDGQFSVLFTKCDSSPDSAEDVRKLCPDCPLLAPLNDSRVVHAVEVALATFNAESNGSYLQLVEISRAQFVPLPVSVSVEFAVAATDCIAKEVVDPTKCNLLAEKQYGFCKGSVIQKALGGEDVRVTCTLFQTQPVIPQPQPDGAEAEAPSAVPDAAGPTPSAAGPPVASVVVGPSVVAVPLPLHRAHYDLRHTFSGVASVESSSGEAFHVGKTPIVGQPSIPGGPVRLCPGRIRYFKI


Assays:
[1] = target: Bovine lactoferrin (lactoferrin from bovine milk, Sigma), P24627
Chain of Bovine lactoferrin (lactoferrin from bovine milk, Sigma), P24627 (P24627 20-708): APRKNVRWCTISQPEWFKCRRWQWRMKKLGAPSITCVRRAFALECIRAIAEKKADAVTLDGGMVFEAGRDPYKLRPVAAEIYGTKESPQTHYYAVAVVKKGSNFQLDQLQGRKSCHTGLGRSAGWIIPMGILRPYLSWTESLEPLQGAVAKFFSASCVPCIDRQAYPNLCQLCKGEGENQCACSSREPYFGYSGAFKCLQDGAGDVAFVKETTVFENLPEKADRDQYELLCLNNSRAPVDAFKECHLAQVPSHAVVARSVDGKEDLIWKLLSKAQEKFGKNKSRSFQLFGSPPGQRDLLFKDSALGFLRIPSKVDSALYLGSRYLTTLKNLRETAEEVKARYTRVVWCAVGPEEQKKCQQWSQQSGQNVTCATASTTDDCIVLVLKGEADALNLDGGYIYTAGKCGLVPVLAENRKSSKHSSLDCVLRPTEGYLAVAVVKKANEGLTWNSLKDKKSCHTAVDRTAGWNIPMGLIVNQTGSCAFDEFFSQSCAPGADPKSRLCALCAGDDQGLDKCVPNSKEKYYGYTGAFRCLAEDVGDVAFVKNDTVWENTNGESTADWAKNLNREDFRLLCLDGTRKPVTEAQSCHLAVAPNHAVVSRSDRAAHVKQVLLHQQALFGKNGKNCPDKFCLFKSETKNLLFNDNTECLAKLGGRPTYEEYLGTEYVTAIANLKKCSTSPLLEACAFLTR

[2] = target: Human lactoferrin (lactoferrin from human milk, Sigma), P02788
Chain of Human lactoferrin (lactoferrin from human milk, Sigma), P02788 (P02788 20-710): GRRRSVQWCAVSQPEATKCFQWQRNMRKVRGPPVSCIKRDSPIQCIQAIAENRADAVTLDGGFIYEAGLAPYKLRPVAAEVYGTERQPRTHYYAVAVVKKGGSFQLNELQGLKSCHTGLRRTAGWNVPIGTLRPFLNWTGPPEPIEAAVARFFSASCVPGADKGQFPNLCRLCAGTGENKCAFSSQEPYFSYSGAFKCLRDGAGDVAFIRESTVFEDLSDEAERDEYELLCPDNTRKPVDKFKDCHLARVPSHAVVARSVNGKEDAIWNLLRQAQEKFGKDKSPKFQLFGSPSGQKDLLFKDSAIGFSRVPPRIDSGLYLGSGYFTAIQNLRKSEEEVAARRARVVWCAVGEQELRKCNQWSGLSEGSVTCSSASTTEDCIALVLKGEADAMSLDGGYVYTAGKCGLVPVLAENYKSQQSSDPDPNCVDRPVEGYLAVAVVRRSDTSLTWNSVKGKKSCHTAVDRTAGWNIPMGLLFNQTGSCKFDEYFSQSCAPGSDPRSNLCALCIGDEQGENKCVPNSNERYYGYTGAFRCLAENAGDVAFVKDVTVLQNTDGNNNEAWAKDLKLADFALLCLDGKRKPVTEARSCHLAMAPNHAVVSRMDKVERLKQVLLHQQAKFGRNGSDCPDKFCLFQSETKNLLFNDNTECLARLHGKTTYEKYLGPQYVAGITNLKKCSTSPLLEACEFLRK

[3] = target: T1, Bovine ribonuclease B (ribonuclease B …)
bovine fetuin, P12763 = target: T2, bovine fetuin, P12763

Protein	deglycosylation, change in MW on SDS-PAGE after overnight incubation [1]	deglycosylation, SDS-PAGE after overnight incubation [2]	deglycosylation (cleavage of high mannose glycans) [1]	deglycosylation (cleavage of high mannose glycans) [3]	deglycosylation (cleavage of high mannose glycans) [2]	shift in molecular weight on SDS-PAGE of human milk after overnight incubation [2]	release of N-glycans (bovine fetuin, P12763)
EndoBI-2 (endo-β-N-acetylglucosaminidase from B. infantis SC142), recombinant, signal peptide and transmembrane domains omitted (protein) VANAQEGDSPVAASQEGNGNKHFMVYYRAWRDVTMKGVNTDLPDDNWISMYDIPYGIDVVNVFSYVPSGQEAAAQPFYDKLKSDYAPYLHARGVKLVRGLDYSGVMVDGFKTWIAQQGKNVDSATESDYDAYADHVIETYMTSVGLDGLDIDMETFPDAAQVAISDQVITALAKRIGPKSDNPEGTMFLYDTNGSYTAPFKNVSDCFDYVAYQQYGSDSNRTAKAAATYEQFIDSTKFVPGLTFPEEGDMNNRWNDATEPYLDSHFYDVASYSYDHNLGGMFVYALDRDGRTYSDDDLAHIKPSNLIWTKTAIAQSQGMSLENAKQAANHFLDRMSYTKDVPAETRQTVAAATNLYEVNKAVLGADWNDGYSNTYDPTLELSLASIDTTALTGAIAKADALLADGATDTDVRTTLTTARNAA	all of them were able to cleave bLF, as observed by discrete changes in MW on SDS-PAGE gels	EndoBI-1 and EndoBI-2 cleaved hLF					
EndoBB (GH85 endo-β-N-acetylglucosaminidase, BLD_0197 from B. longum DJO10A), recombinant, signal peptide and transmembrane domain omitted (protein) CSGGTSATKYTITPENENEELVLGNRPEASYWFPEDLLKWNADKDPNLAYNVSTVPLAKRVDKADLKPVNDTQNTDTKVMAISIMNSSTSGNAPHGLNTANANTFSYWQYVDELVYWGGSSGEGIIVPPSPDVTDMGHTNGVPVLGTVFFPQNVSGGKVEWLDQTLAQKSDGSFPVADKLIEVATTYGFDGWFINQETEGENETSLGADYATKMQAFIAYLKKQAPDLRVVYYDSMTKDGSIDWQNALTDENSMYMTDGDHPIADEMFLNFWWTEDKLAGDDLLAASATKAKELGIDPYSLYAGIDVQADGYDTPVKWNLFAGKDGKTHTSLGLYCPSWAYWSAGNPTTFRKNESRLWVNDEGNPSVSTPYEDDEKWTGVSNYVAEQSAVTSLPFVTNFNNGSGYSFFREGKQISKMDWNNRSVSDIQPTYRWIVADEGGNKTKADYSDADAWYGGSSLKFSGKVAKDGKTMVKLYSASVKTGAKPTLSIAAKANVDTDLKAVLTFADGSVETVNGKKKVGNDWGVIDYDIAKLSNKTLTGIDFTYQSSEDKTGYELLLGNITLKDGSEETELGKVTEVKVDDSEFDDDALYAGARISWKTDGKAPAYEIYQINEDKSRSFLGVSNVENFYANALTRVGETNNTTFEIVPVDRYGTQGTSAKADMDWPDNSKPKAGATASRTLLNVGDEVTFTSASSKNTAEVAWSLPGSSKEHATGKSVTVTYDKEGVYDVEITAKNKSGEATATLKGQIVVSADVMDLVLLSQGAQVSADGFTNGNEKPEFAVDGDVKTKWCVTGPAPHELVVDLGAPKTVSQVDISHAQAGGEDASMNTQEYAIEVSEDGTEYTQVALVKGNTEGATSNAFAPVNARYVKLVVNKPTQGSDTAARIYEMQVRGADGAIL	all of them were able to cleave bLF, as observed by discrete changes in MW on SDS-PAGE gels		cleaving RNAseB and bLF, but not hLF	cleaving RNAseB and bLF, but not hLF	cleaving RNAseB and bLF, but not hLF		
EndoBI-1 (endo-β-N-acetylglucosaminidase from B. infantis ATCC 15697, Blon_2468), recombinant, signal peptide and transmembrane domains omitted (protein) NADAVSPTQETIQSTGRHFMVYYRAWRDVTMKGVNTDLPDDNWISMYDIPYGVDVVNIFSYVPSGQEEQAQPFYDKLKSDYAPYLHSRGIKLVRGIDYTGVAVNGFRTFMKEQNKTESEATEADYDAYAKQVIDKYMISVGLDGLDIDMEAHPNDADVKISDNVIRALSKHIGPKSAKPDTTMFLYDTNGSYLNPFKNVAECFDYVAYQQYGSSSDRTARAAADYQPYIGNEFVPGLTFPEEGDMNNRWYDATEPYEESHFYQVASYVREHNLGGMFVYALDRDGRNYDEDLRRIVPSNLLWTKTAIAESEGMALDTAKTAANHYLDRMSLRQVIDDNAASADKARDMVGKAANLYETNKAVLGGDYGEGFSNTYDPTLEAGLLGIDISVLQQQIDKSSEIIGADTAESDAKTALRMARDAAIDGLTGKIYTADQVSAWSQALKAALDATVPVPTPDSTDQNGNRDKVTNHKVQGQPKQLSAT	all of them were able to cleave bLF, as observed by discrete changes in MW on SDS-PAGE gels	EndoBI-1 and EndoBI-2 cleaved hLF				produced a shift in the molecular weight of primarily lactoferrin	releasing N-glycans from human IgA, IgG, RNase B and bovine fetuin

Reference: patent US20190381150
